# Key:
# Experiment in all cases: cell-based or functional assay
# [1] = target: T1, human CD40 on primary human B cells or human monocyte-derived dendritic cells (human, UniProt P25942 21-277)
# [2] = target: T1, human CD40 on primary human B cells or …; remark: listed apart in the source
# [3] = target: T1, human CD40 on primary human B cells or …; remark: listed apart in the source
# [4] = target: T1, human CD40 on primary human B cells or …; remark: listed apart in the source
# T1 sequence (P25942 21-277 H80K/K81H limits assumed): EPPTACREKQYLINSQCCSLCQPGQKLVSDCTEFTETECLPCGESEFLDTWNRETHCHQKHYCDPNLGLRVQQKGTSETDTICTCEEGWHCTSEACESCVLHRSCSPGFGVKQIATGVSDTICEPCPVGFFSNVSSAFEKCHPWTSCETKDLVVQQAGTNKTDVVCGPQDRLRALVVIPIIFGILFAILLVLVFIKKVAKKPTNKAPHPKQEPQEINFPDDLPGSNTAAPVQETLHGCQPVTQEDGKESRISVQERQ
"fold increase of efficacy against SMA014, CD86 upregulation on human B cells with FAP expressing CHO cells [1] [fold]","fold increase of potency against SMA014, CD86 upregulation on human B cells with FAP expressing CHO cells [1] [fold]","EC50, % CD86, human B cells with FAP-CHO cells, w/o HSA [2] [nM]","EC50, MFI CD86, human B cells with FAP-CHO cells, w/o HSA [2] [nM]","Efficacy [MFI at highest dose], MFI CD86, human B cells with FAP-CHO cells, w/o HSA [3] [MFI]","Efficacy at highest dose, % CD86, human B cells with FAP-CHO cells, w/o HSA [3] [%]","Efficacy [MFI at highest dose], MFI CD86, human B cells with WT-CHO cells (no FAP), w/o HSA [4] [MFI]","Efficacy at highest dose, % CD86, human B cells with WT-CHO cells (no FAP), w/o HSA [4] [%]","EC50, % CD86, human B cells with FAP-CHO cells, w HSA [2] [nM]","EC50, MFI CD86, human B cells with FAP-CHO cells, w HSA [2] [nM]","Efficacy [MFI at highest dose], MFI CD86, human B cells with FAP-CHO cells, w HSA [3] [MFI]","Efficacy at highest dose, % CD86, human B cells with FAP-CHO cells, w HSA [3] [%]","Efficacy [MFI at highest dose], MFI CD86, human B cells with WT-CHO cells (no FAP), w HSA [4] [MFI]","Efficacy at highest dose, % CD86, human B cells with WT-CHO cells (no FAP), w HSA [4] [%]",Binder
2,20,0.23,0.74,6270,86.8,252,46,–,–,–,–,–,–,SMA104 (designed binder) MRGSHHHHHHGSDLGEKLLVAALYGQDDEVRELLKAGADVNAKDQWGLTPLHKAALQGHLEIVEVLLKAGADVNAKDERGHTPLHWAARFGHLEIVEVLLKAGADVNAQDQKGYTPADLAALWGHEDIAEVLQKAAGSPTPTPTTPTPTPTTPTPTPTGSDLGKKLLQAARAGQLDEVRELLKAGADVNAKDTWGFTPLHIAAESGHLEIVEVLLKAGADVNAKDVQGRTPLHIAAHSGHLEIVEVLLKAGADVNAKDFRGWTPLHLAAWSGHLEIVEILLKAGADVNAQDKSGKTPADLAARAGHQDIAEVLQKAAGSPTPTPTTPTPTPTTPTPTPTGSDLGKKLLQAARAGQLDEVRELLKAGADVNAKDTWGFTPLHIAAESGHLEIVEVLLKAGADVNAKDVQGRTPLHIAAHSGHLEIVEVLLKAGADVNAKDFRGWTPLHLAAWSGHLEIVEILLKAGADVNAQDKSGKTPADLAARAGHQDIAEVLQKAA
–,–,11.4,28.9,1640,43.4,291,12.5,72.3,52,799,27,299,13.7,SMA087 (designed binder) MRGSHHHHHHGSDLGKKLLEAARAGQDDEVRELLKAGADVNAKDYFSHTPLHLAARNGHLKIVEVLLKAGADVNAKDFAGKTPLHLAAADGHLEIVEVLLKAGADVNAQDIFGKTPADIAADAGHEDIAEVLQKAAGSPTPTPTTPTPTPTTPTPTPTGSDLGEKLLVAALYGQDDEVRELLKAGADVNAKDQWGLTPLHKAALQGHLEIVEVLLKAGADVNAKDERGHTPLHWAARFGHLEIVEVLLKAGADVNAQDQKGYTPADLAALWGHEDIAEVLQKAAGSPTPTPTTPTPTPTTPTPTPTGSDLGKKLLQAARAGQLDEVRELLKAGADVNAKDTWGFTPLHIAAESGHLEIVEVLLKAGADVNAKDVQGRTPLHIAAHSGHLEIVEVLLKAGADVNAKDFRGWTPLHLAAWSGHLEIVEILLKAGADVNAQDKSGKTPADLAARAGHQDIAEVLQKAA
